Here are results for four substances from publication PMC11667166.

Like-named read-outs stand apart in the source and are kept apart here.

Take CD320: N126Q: where the note is “N-glycosylation at N126”, the localisation_or_trafficking result is listed as “no change”.

On to CD320: N126Q/N195Q/N213Q (QQQ), for which the localisation_or_trafficking entry (N-glycosylation at N126) was “no change”, the localisation_or_trafficking entry (N-glycosylation at N195) was “no change” and the localisation_or_trafficking entry (N-glycosylation at N213) was “no change”.

On to CD320: N195Q, for which the localisation_or_trafficking entry (N-glycosylation at N195) is listed as “no change”.

Consider CD320: N213Q, for which the localisation_or_trafficking entry (N-glycosylation at N213) is “no change”.
